This data set concerns the molecule itself. Nature of the data set: AUC.

B1: Sirt1-214-747 (domain or fragment)
chain: ELDDMTLWQIVINILSEPPKRKKRKDINTIEDAVKLLQECKKIIVLTGAGVSVSCGIPDFRSRDGIYARLAVDFPDLPDPQAMFDIEYFRKDPRPFFKFAKEIYPGQFQPSLCHKFIALSDKEGKLLRNYTQNIDTLEQVAGIQRIIQCHGSFATASCLICKYKVDCEAVRGDIFNQVVPRCPRCPADEPLAIMKPEIVFFGENLPEQFHRAMKYDKDEVDLLIVIGSSLKVRPVALIPSSIPHEVPQILINREPLPHLHFDVELLGDCDVIINELCHRLGGEYAKLCCNPVKLSEITEKPPRTQKELAYLSELPPTPLHVSEDSSSPERTSPPDSSVIVTLLDQAAKSNDDLDVSESKGCMEEKPQEVQTSRNVESIAEQMENPDLKNVGSSTGEKNERTSVAGTVRKCWPNRVAKEQISRRLDGNQYLFLPPNRYIFHGAEVYSDSEDDVLSSSSCGSNSDSGTCQSPSLEEPMEDESEIEEFYNGLEDEPDVPERAGGAGFGTDGDDQEAINEAISVKQEVTDMNYPSNKS
Consider B1, for which the binding result was “binds”.

B2: Sirt1-214-664 (domain or fragment)
chain: ELDDMTLWQIVINILSEPPKRKKRKDINTIEDAVKLLQECKKIIVLTGAGVSVSCGIPDFRSRDGIYARLAVDFPDLPDPQAMFDIEYFRKDPRPFFKFAKEIYPGQFQPSLCHKFIALSDKEGKLLRNYTQNIDTLEQVAGIQRIIQCHGSFATASCLICKYKVDCEAVRGDIFNQVVPRCPRCPADEPLAIMKPEIVFFGENLPEQFHRAMKYDKDEVDLLIVIGSSLKVRPVALIPSSIPHEVPQILINREPLPHLHFDVELLGDCDVIINELCHRLGGEYAKLCCNPVKLSEITEKPPRTQKELAYLSELPPTPLHVSEDSSSPERTSPPDSSVIVTLLDQAAKSNDDLDVSESKGCMEEKPQEVQTSRNVESIAEQMENPDLKNVGSSTGEKNERTSVAGTVRKCWPNRVAKEQISRRLDGNQYLFLPPNRYIFHGAEVYSDSEDD
For the protein B2, the binding result was “binds”.

Source of the values: paper PMC3654483 (Bioscience Reports, 2013).
